The record followed here is patent US20220056517A1 (OXFORD NANOPORE TECHNOLOGIES, published 2022).

The labels stand for the following.
B1: CsgF truncated at position 35 by TEV protease cleavage, with ENLYFQ left at the cleavage site (peptide)
peptide: GTMTFQFRNPNFGGNPNNGAFLLNSAQAQNSYKDPENLYFQ
notes: also called CsgF truncated protein; No mutations at 17 position of CsgF
B2: CsgF N17S truncated at position 35 by TEV protease cleavage, with ENLYFQ left at the cleavage site (peptide)
peptide: B1 peptide with N17S
notes: also called N175 mutation in CsgF (sic, N17S)
B3: Pro-CP1-Eco-(WT-Y51A/F56Q/D149N/E185N/E201N/E203N-StrepII(C)) CsgG pore (other)
chain: CLTAPPKEAARPTLMPRAQSYKDLTHLPAPTGKIFVSVYNIQDETGQFKPAPASNQSTAVPQSATAMLVTALKDSRWFIPLERQGLQNLLNERKIIRAAQENGTVAINNRIPLQSLTAANIMVEGSIIGYESNVKSGGVGARYFGIGANTQYQLDQIAVNLRVVNVSTGEILSSVNTSKTILSYNVQAGVFRFIDYQRLLNGNVGYTSNEPVMLCLMSAIETGVIFLINDGIDRGLWDLQNKAERQNDILVKYRHMSVPPESSAWSHPQFEK
notes: The entry already holds the mutations and the StrepII tag; also called Pro-CP1-Eco-(Mutant-StrepII(C)); monomeric pore
B4: Alexa 594-labelled synthetic CsgF peptide corresponding to the first 34 residues of mature CsgF (peptide)
peptide: GTMTFQFRNPNFGGNPNNGAFLLNSAQAQNSYKD-{NH(CH2)5NH2-Alexa594}
notes: also called CsgF N-terminal peptide; FCP
B5: E. coli CsgG (wild-type) fused C-terminally to a Strep-II tag, outer membrane pore (other)
chain: CLTAPPKEAARPTLMPRAQSYKDLTHLPAPTGKIFVSVYNIQDETGQFKPYPASNFSTAVPQSATAMLVTALKDSRWFIPLERQGLQNLLNERKIIRAAQENGTVAINNRIPLQSLTAANIMVEGSIIGYESNVKSGGVGARYFGIGADTQYQLDQIAVNLRVVNVSTGEILSSVNTSKTILSYEVQAGVFRFIDYQRLLEGEVGYTSNEPVMLCLMSAIETGVIFLINDGIDRGLWDLQNKAERQNDILVKYRHMSVPPES
modifications: N-terminal lipidation of mature CsgG (Cys at the N-terminal position)
notes: Nonameric pore; dimers of nonamers also seen; also called CsgG-Strep; CsgG-strep; not shown: C-terminal Strep-II tag
B6: E. coli CsgF (mature) with C-terminal 6x histidine tag (other)
chain: GTMTFQFRNPNFGGNPNNGAFLLNSAQAQNSYKDPSYNDDFGIETPSALDNFTQAIQSQILGGLLSNINTGKPGRMVTNDYIVDIANRDGQLQLNVTDRKTGQTSTIQVSGLQNNSTDFHHHHHH
notes: also called CsgF-His; CsgF-his
B7: CsgF-(1-30) synthetic peptide (peptide)
peptide: GTMTFQFRNPNFGGNPNNGAFLLNSAQAQN
notes: Range counted on mature CsgF; also called mature peptide of CsgF 1:30
B8: CsgF 20:64 peptide with C-terminal 6xHis (from pNA100) (peptide)
peptide: GTMTFQFRNPNFGGNPNNGAFLLNSAQAQNSYKDPSYNDDFGIETHHHHHH
notes: first 45 residues of mature CsgF; also called CsgF fragment 1-64; CsgF 1-64

Changes are numbered by the printed parent chain. In names and notes the source's numbering stands. No end group written: not given here. *: point of attachment. NH(CH2)5NH2 = NCCCCCN*

Series [1] addresses T1, CsgG Y51A/F56Q/N91R/K94Q/R97W-del(V105-I107) pore containing the C terminal strep tag (E. coli, UniProt P0AEA2 16-277).
T1 construct: Oligomeric CsgG pore; not shown: C-terminal Strep tag
T1 chain: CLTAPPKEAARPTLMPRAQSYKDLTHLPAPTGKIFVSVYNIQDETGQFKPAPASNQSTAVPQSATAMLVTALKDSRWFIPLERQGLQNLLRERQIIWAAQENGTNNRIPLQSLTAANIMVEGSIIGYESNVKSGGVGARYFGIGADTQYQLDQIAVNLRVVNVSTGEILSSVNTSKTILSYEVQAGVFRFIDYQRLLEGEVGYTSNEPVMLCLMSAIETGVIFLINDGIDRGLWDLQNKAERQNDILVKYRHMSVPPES
As to the kind of experiment: co-expression, purification, TEV cleavage; DNA translocation current recording.

Series [2] deals with the molecule itself. Description: size exclusion chromatography (S200 increase) of Strep- and ion-exchange-purified CsgG pore; pore-pore dimer. (In general: SEC sorts molecules by how far they enter the pores of the column.)
The target of series [3] is B5. As to the kind of experiment: in vitro reconstitution (2:1 molar ratio), StrepTactin pull down, native PAGE with fluorescence.
For series [4], the target named is T2, CsgG Y51A/F56Q/K94Q/R97W/R192D-del(V105-I107), Strep-tagged (E. coli, UniProt P0AEA2 16-277).
T2 construct: Oligomeric CsgG pore; also called CsgG mutant with altered constriction; not shown: Strep tag
T2 chain: T1 chain with R91N, R189D
The series is described as above.

Series [5] concerns the molecule itself. Description: size exclusion chromatography (Superose 6); pore-pore dimer.
In series [6] the target is B5. Description: cryo-EM of co-purified or in vitro reconstituted CsgG:CsgF particles.
Series [7] addresses T3, CsgG Y51S/N55V/F56Q/N91R/K94Q/R97W-del(V105-I107) pore containing the C terminal strep tag (E. coli, UniProt P0AEA2 16-277).
T3 construct: also called Y515/N55V/F56Q/N91R/K94Q/R97W-del(V105-I107) (sic); not shown: C-terminal Strep tag
T3 chain: T1 chain with A51S, N55V
Description: panel F; in vitro reconstitution; DNA translocation current recording.

For series [8], the target named is T4, CsgG Y51A/F56A/N91R/K94Q/R97W-del(V105-I107) pore containing the C terminal strep tag (E. coli, UniProt P0AEA2 16-277).
T4 construct: not shown: C-terminal Strep tag
T4 chain: T1 chain with Q56A
As to the kind of experiment: panel D; in vitro reconstitution; DNA translocation current recording.

For series [9], the target named is T5, CsgG Y51A/N55V/F56Q/N91R/K94Q/R97W-del(V105-I107) pore containing the C terminal strep tag (E. coli, UniProt P0AEA2 16-277).
T5 construct: Oligomeric CsgG pore; also called Y51A/F56Q/N55V/N91R/K94Q/R97W-del(V105-I107); not shown: C-terminal Strep tag
T5 chain: T1 chain with N55V
Description: in vitro reconstitution; DNA translocation current recording.

Series [10] addresses T6, CsgG Y51T/N55V/F56Q/N91R/K94Q/R97W-del(V105-I107) pore containing the C terminal strep tag (E. coli, UniProt P0AEA2 16-277).
T6 construct: not shown: C-terminal Strep tag
T6 chain: T1 chain with A51T, N55V
As to the kind of experiment: panel B; in vitro reconstitution; DNA translocation current recording.

In series [11] the target is T7, CsgG Y51A/N55I/F56Q/N91R/K94Q/R97W-del(V105-I107) pore containing the C terminal strep tag (E. coli, UniProt P0AEA2 16-277).
T7 construct: also called Y51A/N551/F56Q/N91R/K94Q/R97W-del(V105-I107) (sic); not shown: C-terminal Strep tag
T7 chain: T1 chain with N55I
Description: panel C; in vitro reconstitution; DNA translocation current recording.

The target of series [12] is T5, CsgG …. As to the kind of experiment: reconstitution with synthetic peptide, electrophysiology.
Series [13] has as its target B5. As to the kind of experiment: co-expression, Strep affinity purification, anti-His dot blot.

As to B1, in series [1], the binding result is on record as “binds”.
The same measure, in the same setting: for B2 the value was “binds”.
Regarding B3, the binding result in series [2] is reported as “binds”.
With B4, the binding result in series [3] and in [4] was “binds” throughout.
With B5, in series [5], the binding result was “binds”.
For B6, the binding result in series [6] is “binds”.
As for GTMTFQFRNPNFGGNPSNGAFLLNSAQAQNSYKDP (also called CsgF-N175-(1-35) (sic)) [CsgF-N17S-(1-35) peptide], the binding result in series [7], in series [8], in series [9], in [10] and in [11] was “binds” each time.
For GTMTFQFRNPNFGGNPVNGAFLLNSAQAQNSYKDP [CsgF-N17V-(1-35) peptide], in [9], the binding result is recorded as “binds”.
Take B7: the binding result in [12] is on record as “binds”.
On the same count and under the same terms, then GTMTFQFRNPNFGGNPNNGAFLLNSAQAQ [CsgF-(1-29) synthetic peptide], with “binds”.
On to B8, for which the binding result in [13] is reported as “binds”.
